Laboratory results published in FireProtDB (doi:10.1006/jmbi.1998.1906).

B1: Lysozyme C, P61626 (parent)
chain: MKALIVLGLVLLSVTVQGKVFERCELARTLKRLGMDGYRGISLANWMCLAKWESGYNTRATNYNAGDRSTDYGIFQINSRYWCNDGKTPGAVNACHLSCSALLQDNIADAVACAKRVVRDPQGIRAWVAWRNRCQNRDVRQYVQGCGV

Variants of: B1
Conditions: Homo sapiens; pH 2.68; Thermal; DSC; glycine 0.05 M; reversible: yes; structure 1LZ1; whole UniProt chain shown
For MKALIVLGLVLLSVTVQGKVFERCELARTLKRLGMDGYRGISLANWMCLAKWESGYNTRATNYNAGDRSTDYGIFQVNSRYWCNDGKTPGAVNACHLSCSALLQDNIADAVACAKRVVRDPQGIRAWVAWRNRCQNRDVRQYVQGCGV [I77V], the Tm was 44.3 °C, the “unfolding enthalpy (calorimetric)” value was 62.9 kcal/mol and the “unfolding enthalpy (van 't Hoff)” value was 67 kcal/mol.

Same assay, conditions: Homo sapiens; pH 2.7; 49.2 °C; Thermal; DSC; glycine 0.05 M; reversible: yes; structure 1LZ1; whole UniProt chain shown
For MKALIVLGLVLLSVTVQGKVFERCELARTLKRLGMDGYRGISLANWMCLAKWESGYNTRATNYNAGDRSTDYGIFQVNSRYWCNDGKTPGAVNACHLSCSALLQDNIADAVACAKRVVRDPQGIRAWVAWRNRCQNRDVRQYVQGCGV [I77V], the “ddG of mutation (higher = less stable)” value was 0.93 kcal/mol and the “heat capacity change of unfolding” value was 1.67 kcal/mol/K. For MKALIVLGLVLLSVTVQGKVFERCELARTLKRLGMDGYRGISLANWMCLAKWESGYNTRATNYNAGDRSTDYGIFQINSRYWCNDGKTPGAVNACHLSCSALLQDNIADAVACAKRVVRDPQGIRAWAAWRNRCQNRDVRQYVQGCGV [V128A], the “ddG of mutation (higher = less stable)” value was -0.07 kcal/mol and the “heat capacity change of unfolding” value was 1.51 kcal/mol/K. In the case of MKALIVLGLVLLSVTVQGKVFERCELARTLKRLGMDGYRGVSLANWMCLAKWESGYNTRATNYNAGDRSTDYGIFQINSRYWCNDGKTPGAVNACHLSCSALLQDNIADAVACAKRVVRDPQGIRAWVAWRNRCQNRDVRQYVQGCGV [I41V], the “ddG of mutation (higher = less stable)” value is reported as 0.41 kcal/mol and the “heat capacity change of unfolding” value is reported as 1.82 kcal/mol/K.

Same assay, conditions: Homo sapiens; pH 2.7; Thermal; DSC; glycine 0.05 M; reversible: yes; structure 1LZ1; whole UniProt chain shown
For MKALIVLGLVLLSVTVQGKVFERCELARTLKRLGMDGYRGISLANWMCLAKWESGYNTRATNYNAGDRSTDYGIFQVNSRYWCNDGKTPGAVNACHLSCSALLQDNIADAVACAKRVVRDPQGIRAWVAWRNRCQNRDVRQYVQGCGV [I77V], the Tm was 44.8 °C, the “change of melting temperature, mutant - wild type (higher = more stable)” value (“change of melting temperature, mutant” below) was -4.4 °C and the “heat capacity change of unfolding” value was 1.67 kcal/mol/K. The “unfolding enthalpy (calorimetric)” value was 71.3 kcal/mol. In the case of MKALIVLGLVLLSVTVQGKVFERCELARTLKRLGMDGYRGISLANWMCLAKWESGYNTRATNYNAGDRSTDYGIFQINSRYWCNDGKTPGAVNACHLSCSALLQDNIADAVACAKRVVRDPQGIRAWAAWRNRCQNRDVRQYVQGCGV [V128A], the Tm is reported as 49.5 °C, the “change of melting temperature, mutant” value is reported as 0.3 °C and the “heat capacity change of unfolding” value is reported as 1.51 kcal/mol/K. For the same variant, the “unfolding enthalpy (calorimetric)” value was 80.9 kcal/mol. With MKALIVLGLVLLSVTVQGKVFERCELARTLKRLGMDGYRGVSLANWMCLAKWESGYNTRATNYNAGDRSTDYGIFQINSRYWCNDGKTPGAVNACHLSCSALLQDNIADAVACAKRVVRDPQGIRAWVAWRNRCQNRDVRQYVQGCGV [I41V] the Tm was 47.6 °C, the “change of melting temperature, mutant” value was -1.6 °C and the “heat capacity change of unfolding” value was 1.82 kcal/mol/K. The “unfolding enthalpy (calorimetric)” value was 80.9 kcal/mol.

Same assay, conditions: Homo sapiens; pH 2.81; Thermal; DSC; glycine 0.05 M; reversible: yes; structure 1LZ1; whole UniProt chain shown
In the case of MKALIVLGLVLLSVTVQGKVFERCELARTLKRLGMDGYRGISLANWMCLAKWESGYNTRATNYNAGDRSTDYGIFQVNSRYWCNDGKTPGAVNACHLSCSALLQDNIADAVACAKRVVRDPQGIRAWVAWRNRCQNRDVRQYVQGCGV [I77V], the Tm is reported as 46.9 °C, the “change of melting temperature, mutant” value is reported as -5.1 °C and the “unfolding enthalpy (calorimetric)” value is reported as 67.5 kcal/mol. For the same variant, the “unfolding enthalpy (van 't Hoff)” value was 71.1 kcal/mol.

Same assay, conditions: Homo sapiens; pH 3; Thermal; DSC; glycine 0.05 M; reversible: yes; structure 1LZ1; whole UniProt chain shown
With MKALIVLGLVLLSVTVQGKVFERCELARTLKRLGMDGYRGISLANWMCLAKWESGYNTRATNYNAGDRSTDYGIFQVNSRYWCNDGKTPGAVNACHLSCSALLQDNIADAVACAKRVVRDPQGIRAWVAWRNRCQNRDVRQYVQGCGV [I77V] the Tm was 50.3 °C, the “unfolding enthalpy (calorimetric)” value was 74.2 kcal/mol and the “unfolding enthalpy (van 't Hoff)” value was 76.1 kcal/mol. With MKALIVLGLVLLSVTVQGKVFERCELARTLKRLGMDGYRGISLANWMCLAKWESGYNTRATNYNAGDRSTDYGIFQINSRYWCNDGKTPGAVNACHLSCSALLQDNIADAVACAKRVVRDPQGIRAWAAWRNRCQNRDVRQYVQGCGV [V128A] the Tm was 55 °C, the “unfolding enthalpy (calorimetric)” value was 89 kcal/mol and the “unfolding enthalpy (van 't Hoff)” value was 93.1 kcal/mol.

Same assay, conditions: Homo sapiens; pH 3.1; Thermal; DSC; glycine 0.05 M; reversible: yes; structure 1LZ1; whole UniProt chain shown
With MKALIVLGLVLLSVTVQGKVFERCELARTLKRLGMDGYRGISLANWMCLAKWESGYNTRATNYNAGDRSTDYGIFQVNSRYWCNDGKTPGAVNACHLSCSALLQDNIADAVACAKRVVRDPQGIRAWVAWRNRCQNRDVRQYVQGCGV [I77V] the Tm was 52 °C, the “unfolding enthalpy (calorimetric)” value was 75.4 kcal/mol and the “unfolding enthalpy (van 't Hoff)” value was 78.7 kcal/mol.

Same assay, conditions: Homo sapiens; pH 2.55; Thermal; DSC; glycine 0.05 M; reversible: yes; structure 1LZ1; whole UniProt chain shown
In the case of MKALIVLGLVLLSVTVQGKVFERCELARTLKRLGMDGYRGISLANWMCLAKWESGYNTRATNYNAGDRSTDYGIFQINSRYWCNDGKTPGAVNACHLSCSALLQDNIADAVACAKRVVRDPQGIRAWAAWRNRCQNRDVRQYVQGCGV [V128A], the Tm is reported as 46.8 °C, the “unfolding enthalpy (calorimetric)” value is reported as 76.8 kcal/mol and the “unfolding enthalpy (van 't Hoff)” value is reported as 78 kcal/mol.

Same assay, conditions: Homo sapiens; pH 2.87; Thermal; DSC; glycine 0.05 M; reversible: yes; structure 1LZ1; whole UniProt chain shown
For MKALIVLGLVLLSVTVQGKVFERCELARTLKRLGMDGYRGISLANWMCLAKWESGYNTRATNYNAGDRSTDYGIFQINSRYWCNDGKTPGAVNACHLSCSALLQDNIADAVACAKRVVRDPQGIRAWAAWRNRCQNRDVRQYVQGCGV [V128A], the Tm was 52.5 °C, the “unfolding enthalpy (calorimetric)” value was 85.9 kcal/mol and the “unfolding enthalpy (van 't Hoff)” value was 87.6 kcal/mol.

Same assay, conditions: Homo sapiens; pH 3.13; Thermal; DSC; glycine 0.05 M; reversible: yes; structure 1LZ1; whole UniProt chain shown
With MKALIVLGLVLLSVTVQGKVFERCELARTLKRLGMDGYRGISLANWMCLAKWESGYNTRATNYNAGDRSTDYGIFQINSRYWCNDGKTPGAVNACHLSCSALLQDNIADAVACAKRVVRDPQGIRAWAAWRNRCQNRDVRQYVQGCGV [V128A] the Tm was 57.2 °C, the “unfolding enthalpy (calorimetric)” value was 93.3 kcal/mol and the “unfolding enthalpy (van 't Hoff)” value was 93.3 kcal/mol.

Same assay, conditions: Homo sapiens; pH 2.66; Thermal; DSC; glycine 0.05 M; reversible: yes; structure 1LZ1; whole UniProt chain shown
With MKALIVLGLVLLSVTVQGKVFERCELARTLKRLGMDGYRGVSLANWMCLAKWESGYNTRATNYNAGDRSTDYGIFQINSRYWCNDGKTPGAVNACHLSCSALLQDNIADAVACAKRVVRDPQGIRAWVAWRNRCQNRDVRQYVQGCGV [I41V] the Tm was 46.7 °C, the “unfolding enthalpy (calorimetric)” value was 76.3 kcal/mol and the “unfolding enthalpy (van 't Hoff)” value was 80.4 kcal/mol.

Same assay, conditions: Homo sapiens; pH 2.78; Thermal; DSC; glycine 0.05 M; reversible: yes; structure 1LZ1; whole UniProt chain shown
In the case of MKALIVLGLVLLSVTVQGKVFERCELARTLKRLGMDGYRGVSLANWMCLAKWESGYNTRATNYNAGDRSTDYGIFQINSRYWCNDGKTPGAVNACHLSCSALLQDNIADAVACAKRVVRDPQGIRAWVAWRNRCQNRDVRQYVQGCGV [I41V], the Tm is reported as 49.6 °C, the “unfolding enthalpy (calorimetric)” value is reported as 83.5 kcal/mol and the “unfolding enthalpy (van 't Hoff)” value is reported as 85.9 kcal/mol.

Same assay, conditions: Homo sapiens; pH 2.96; Thermal; DSC; glycine 0.05 M; reversible: yes; structure 1LZ1; whole UniProt chain shown
In the case of MKALIVLGLVLLSVTVQGKVFERCELARTLKRLGMDGYRGVSLANWMCLAKWESGYNTRATNYNAGDRSTDYGIFQINSRYWCNDGKTPGAVNACHLSCSALLQDNIADAVACAKRVVRDPQGIRAWVAWRNRCQNRDVRQYVQGCGV [I41V], the Tm is reported as 52.3 °C, the “unfolding enthalpy (calorimetric)” value is reported as 85.4 kcal/mol and the “unfolding enthalpy (van 't Hoff)” value is reported as 89.2 kcal/mol.

Same assay, conditions: Homo sapiens; pH 3.09; Thermal; DSC; glycine 0.05 M; reversible: yes; structure 1LZ1; whole UniProt chain shown
With MKALIVLGLVLLSVTVQGKVFERCELARTLKRLGMDGYRGVSLANWMCLAKWESGYNTRATNYNAGDRSTDYGIFQINSRYWCNDGKTPGAVNACHLSCSALLQDNIADAVACAKRVVRDPQGIRAWVAWRNRCQNRDVRQYVQGCGV [I41V] the Tm was 55 °C, the “unfolding enthalpy (calorimetric)” value was 91.1 kcal/mol and the “unfolding enthalpy (van 't Hoff)” value was 95 kcal/mol.
